Results on 23 variants are retold here after the supplement of paper PMC7125110.

Sequences and labels used below:
B1: glmS ribozyme (parent)
chain: AUAAAAGCGCCAGAACUACAGAAAUGUAGUUGACGAGGAGGAGGUUUAUCGAAUUUUCGGCGGAUGCCUCCAAA

± gives the standard error. Variants at the floor of the assay were thinned out.

What all share (conditions): with glucosamine-6-phosphate
In series [1] the parent is B1. The series is described as follows: self-cleavage kobs at 640 uM GlcN6P; higher = faster cleavage; RNA array. Summed up:
(§1)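 Weighted Michaelis–Menten fits across concentrations supplied kcat and KM, based on kobs from one- or two-exponential decay fits to normalised per-tile medians. The data came from barcoded ribozyme variants transcribed in situ by E. coli RNA polymerase on sequenced MiSeq chips and tracked at 37 °C by a hybridised Cy3 probe. Glucosamine-6-phosphate (40 μM to 10 mM) in HEPES/KCl/Mg(OAc)2 buffer was flowed in.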

Series [2] covers variants of B1. The series is described as follows: self-cleavage kobs at 2500 uM GlcN6P; higher = faster cleavage; RNA array. A digest of the protocol:
as §1

Series [3] covers variants of B1. Description: self-cleavage kobs at 10000 uM GlcN6P; higher = faster cleavage; RNA array. A digest of the protocol:
as §1

Regarding AUAAAGGCGCCAGAACUACAGAAAUGUAGUGGACGAGGAGGAGGUUUAUCGAGUUUUCGGCGGAUGCCUCCAAA [A6G U31G A53G], in the series with glucosamine-6-phosphate [1], the “self-cleavage kobs at 640 uM GlcN6P” value came out at 4.09e-05 ± 1.9e-05 s⁻¹. Also, the “self-cleavage kobs at 2500 uM GlcN6P” value with glucosamine-6-phosphate [2] came to 0.000162 ± 3.5e-05 s⁻¹.
Consider AUAAAAGCGCCAGAACUACAGAAAUGUAGUUGACGAGGAGGCGGUUUAUCAAAUUUUCGGCGGAUGCCACCAAA [A42C G51A U69A], for which the “self-cleavage kobs at 640 uM GlcN6P” value with glucosamine-6-phosphate [1] was < 1e-05 s⁻¹.
The same measure, in the same setting: the result for AUAAAAGCGCCAGAACUACAGAAAUGUAGUUGACGGGGAGGAGGUUUAUCGAUUUUUCGGCGGAUGCAUCGAAA [A36G A53U C68A C71G] reads 8.35e-05 ± 2e-05 s⁻¹.
For the variant AUAAAAUCGCCAGAACUACAGAAAUGUAGUUGACGAGGAGGAGGUCUAUCGAAUUUUCGGCGGAAGCCUCCAAA [G7U U46C U65A], the “self-cleavage kobs at 640 uM GlcN6P” value in the series with glucosamine-6-phosphate [1] was < 1e-05 s⁻¹. Besides, the “self-cleavage kobs at 2500 uM GlcN6P” value with glucosamine-6-phosphate [2] is < 1e-05 s⁻¹.
As for AUAAAAGCGCCAGAGCUACAGAAAUGUAGUGGACGAGGUGGAGGUUUAUCGAAUUUUCGUCGGAUGCCUCCAAA [A15G U31G A39U G60U], the “self-cleavage kobs at 640 uM GlcN6P” value in the series with glucosamine-6-phosphate [1] is < 1e-05 s⁻¹. Further, the “self-cleavage kobs at 2500 uM GlcN6P” value with glucosamine-6-phosphate [2] is < 1e-05 s⁻¹.
For the variant AUAAAAGCGCCAGAACUACAGAAAUGUAGUUGACGAGGACGAGCUUUAUCGAAUUUUCGGUGGAUGCCUCCAAA [G40C G44C C61U], in the series with glucosamine-6-phosphate [1], the “self-cleavage kobs at 640 uM GlcN6P” value was < 1e-05 s⁻¹. Also, the “self-cleavage kobs at 2500 uM GlcN6P” value in the series with glucosamine-6-phosphate [2] is < 1e-05 s⁻¹.
Regarding AUAAAAGCGCCAGAACUACAGAAAUGUAGUUGGCGGGGAGGAGGUUGAUCGAAUUUUCGGCGGAUGCCUCGAAA [A33G A36G U47G C71G], in the series with glucosamine-6-phosphate [1], the “self-cleavage kobs at 640 uM GlcN6P” value came to 0.000121 ± 4.4e-05 s⁻¹.
For the variant AUAAAAGCGCCUGAACUACAGAAAUGUAGUUGACGAGGAGGAGGUUUAUCGAAUUAUGGGCGGAUGCCUCCAAA [A12U U56A C58G], the “self-cleavage kobs at 640 uM GlcN6P” value in the series with glucosamine-6-phosphate [1] came to 0.000155 ± 2.6e-05 s⁻¹. Besides, the “self-cleavage kobs at 2500 uM GlcN6P” value in the series with glucosamine-6-phosphate [2] was found to be 0.000526 ± 9e-05 s⁻¹.
With AUAAAAGCGCCAGAACUACAGAAAUGUAGUUGACGAGUAGGAGGUUUAUUGAAUUUUAGGCGGAUGCCACCAAA [G38U C50U C58A U69A], the “self-cleavage kobs at 640 uM GlcN6P” value with glucosamine-6-phosphate [1] worked out at 0.000295 ± 9.9e-05 s⁻¹. Also, the “self-cleavage kobs at 2500 uM GlcN6P” value with glucosamine-6-phosphate [2] came out at 0.000466 ± 0.00018 s⁻¹.
With AUAAAAGCCCCAGAACUACAGAAAUGUAGUUGACGAGGAGGAGGUUUAUCGAAUUUUCGGCGGAUGCCGCCAAA [G9C U69G], the “self-cleavage kobs at 640 uM GlcN6P” value with glucosamine-6-phosphate [1] is < 1e-05 s⁻¹. The “self-cleavage kobs at 2500 uM GlcN6P” value in the series with glucosamine-6-phosphate [2] was < 1e-05 s⁻¹. In the series with glucosamine-6-phosphate [3], the “self-cleavage kobs at 10000 uM GlcN6P” value is < 1e-05 s⁻¹.
As to AUAAAAGCGCCAGCACUACAGAAAUGUAGUUGACGAGGAGCAGCUUUAUGGAAUUUUCGGCGGAUGCCUCCAAA [A14C G41C G44C C50G], in the series with glucosamine-6-phosphate [1], the “self-cleavage kobs at 640 uM GlcN6P” value was < 1e-05 s⁻¹.
Consider AUAAAAGCGCCAGAACUACAGAAAUGUAGUUGACGAGGAGGAGGCUUAUCGAAUUUUCGGCGGAUGCCUCGAAA [U45C C71G], for which, in the series with glucosamine-6-phosphate [1], the “self-cleavage kobs at 640 uM GlcN6P” value is 8.57e-05 ± 2.5e-05 s⁻¹. The “self-cleavage kobs at 2500 uM GlcN6P” value with glucosamine-6-phosphate [2] was 5.59e-05 ± 2.2e-05 s⁻¹. For the same variant, in the series with glucosamine-6-phosphate [3], the “self-cleavage kobs at 10000 uM GlcN6P” value is 0.000305 ± 6.9e-05 s⁻¹.
Take AUAAAAGCGCCAGAAGUACAGAAAUGUAGUUGACGAGGAGGAGGUUUAUCGAAUUUUCGGCUGAUCCCUCCAAA [C16G G62U G66C]: the “self-cleavage kobs at 640 uM GlcN6P” value with glucosamine-6-phosphate [1] was < 1e-05 s⁻¹.
Regarding AUAAAAGCGCCAGAACUACAGAAAUGUAGUUGCGGAGGAGGAGGUUUAUCGACUUUACGGCGGAUCCCUCCAAA [A33C C34G A53C U57A G66C], in the series with glucosamine-6-phosphate [1], the “self-cleavage kobs at 640 uM GlcN6P” value was < 1e-05 s⁻¹.
AUAAAAGCGUCAGAACUACAGAAAUGUAGUUCACGAGGAGGAGGUUUAUCGAAUUUUCGGCUGAUGCCUCCAAA [C10U G32C G62U]: the “self-cleavage kobs at 640 uM GlcN6P” value with glucosamine-6-phosphate [1] was < 1e-05 s⁻¹. For the same variant, the “self-cleavage kobs at 2500 uM GlcN6P” value in the series with glucosamine-6-phosphate [2] was < 1e-05 s⁻¹.
AUAAAAACGCCAGAACUACAGAAAUGUAUUUGAUGAGGAGGAGGUUUAUCGAAUUUUCGGCGGAUGCCUCCAAA [G7A G29U C34U]: in the series with glucosamine-6-phosphate [1], the “self-cleavage kobs at 640 uM GlcN6P” value was < 1e-05 s⁻¹.
Take AUAAAAGCGCCAGAACUACAGAAAUGUAGUUGACGAGGAGGAGGUUUAUCGGAUUUUGGGCGGACGCCUCCAAA [A52G C58G U65C]: the “self-cleavage kobs at 640 uM GlcN6P” value with glucosamine-6-phosphate [1] is < 1e-05 s⁻¹.
Still for that read-out and setting: the figure for AUAAAAACGCCAGAACUACAGAAAUGUAGUUGCCGAGGUGGAGGUUUAUCGAAUUUUCGGCGGAUGCCUCCAAA [G7A A33C A39U] is < 1e-05 s⁻¹.
AUAAAAGCGCCAGAACUACAGAAAUGUAGUUGACGAGGAGGAAUUUUAUCGAAUUUUCGGCGGAUGCGUCCAAA [G43A G44U C68G]: in the series with glucosamine-6-phosphate [1], the “self-cleavage kobs at 640 uM GlcN6P” value is < 1e-05 s⁻¹. In addition, in the series with glucosamine-6-phosphate [2], the “self-cleavage kobs at 2500 uM GlcN6P” value was < 1e-05 s⁻¹.
For AUAAAAGCGCCAGAACUACAGAAAUGUAGUUGACGCGGAGUAGGUUUAUCGAGUUUUCGGCGGAUGCCUCCAAA [A36C G41U A53G], the “self-cleavage kobs at 640 uM GlcN6P” value with glucosamine-6-phosphate [1] was < 1e-05 s⁻¹.
For AUAAACGCCCCAGAACUACAGAAAUGUAGUUGACGAGGAGUAGGUUUAUCGAAUUUUCGGCGGAUGCCUCCAAA [A6C G9C G41U], the “self-cleavage kobs at 640 uM GlcN6P” value with glucosamine-6-phosphate [1] is < 1e-05 s⁻¹. The “self-cleavage kobs at 2500 uM GlcN6P” value in the series with glucosamine-6-phosphate [2] is < 1e-05 s⁻¹.
Regarding AUAAAAGCACUAGAACUACAGAAAUGUACUUGACUAGGAGGAGGUUUAUCGAAUUUUCCGCGGAUGCCUCCAAA [G9A C11U G29C G35U G59C], in the series with glucosamine-6-phosphate [1], the “self-cleavage kobs at 640 uM GlcN6P” value was < 1e-05 s⁻¹. Moreover, in the series with glucosamine-6-phosphate [2], the “self-cleavage kobs at 2500 uM GlcN6P” value was < 1e-05 s⁻¹.
Take AUAAAAGCGCCAGAACUACAGAAAUGUAGUUGACGAGGAAGAGGUUUAUCGAAUUUUCGGCGGAGUCCUCCAAA [G40A U65G G66U]: the “self-cleavage kobs at 640 uM GlcN6P” value with glucosamine-6-phosphate [1] was 0.00012 ± 2.6e-05 s⁻¹. In addition, in the series with glucosamine-6-phosphate [2], the “self-cleavage kobs at 2500 uM GlcN6P” value was determined as 0.000547 ± 0.00026 s⁻¹.
